Assays:
AF10PZP E179K (mouse) = assay: fluorescence polarization; details: 75 mM NaCl; S1/2; FP: 25 mM Tris-HCl pH 7.5, 75 mM NaCl, 0.00625% Tween20, 5 mM DTT, 5 nM NCP; NCP EMSA: 25 mM Tris pH 7.5, 75 mM NaCl, 10% glycerol, 0.005% Tween 20, 4 C; DNA …
AF10PZP D43K (mouse) = assay: fluorescence polarization; details: 75 mM NaCl; S1/2; FP: 25 mM Tris-HCl pH 7.5, 75 mM NaCl, 0.00625% Tween20, 5 mM DTT, 5 nM NCP; NCP EMSA: 25 mM Tris pH 7.5, 75 mM NaCl, 10% glycerol, 0.005% Tween 20, 4 C; DNA …
AF10PZP WT (mouse) = assay: fluorescence polarization; details: S1/2, FP: 25 mM Tris-HCl pH 7.5, 75 mM NaCl, 0.00625% Tween20, 5 mM DTT, 5 nM NCP, NCP EMSA: 25 mM Tris pH 7.5, 75 mM NaCl, 10% glycerol, 0.005% Tween 20, 4 C, DNA …
[1] = target: nucleosome reconstituted with 147 bp 601 DNA (NCP147) (human) (UniProt P0C0S8); assay: fluorescence polarisation; 5 nM fluorescein-labelled NCP with increasing AF10PZP WT or mutants; 75 mM NaCl, 25 mM Tris-HCl pH 7.5, 0.00625% Tween20, 5 mM DTT; fit to a binding isotherm, S1/2
[2] = target: nucleosome core particle reconstituted with 207 bp DNA (NCP207) (human) (UniProt P0C0S8); assay: as above
[3] = target: nucleosome core particle reconstituted with 207 bp DNA (NCP207), P0C0S8;P62807;Q71DI3;P62805; assay: fluorescence anisotropy; details: chain shown with the change

Question: With NCP207 as the molecule, how does the K half (AF10PZP E179K (mouse)) read?
Answer: 14 µM

Question: And the K half (AF10PZP D43K (mouse))?
Answer: 9 µM

Question: And the K half (AF10PZP WT (mouse); 75 mM NaCl)?
Answer: 6 µM

Question: Which results are given for “PZP domain of AF10 (AF10PZP, aa 19–208), wild type (from UniProt O54826 19-208) (domain or fragment)”?
Answer: S1/2 [1]: 15 µM; S1/2 [2]: 6 µM

Question: Which K half (AF10PZP WT (mouse); 75 mM NaCl) does the source give for NCP147 here?
Answer: 15 µM

Question: How did the S1/2 [2] turn out when “AF10PZP D43K mutant (aa 19–208) (from UniProt O54826 19-208) (domain or fragment)” was run?
Answer: 9 µM

Question: With “AF10PZP E179K mutant (aa 19–208) (from UniProt O54826 19-208) (domain or fragment)” as the molecule, how does the S1/2 [2] read?
Answer: 14 µM

Question: 207 bp 601 DNA was tested. Which K half (AF10PZP WT (mouse)) did it give?
Answer: 8 µM

B1: PZP domain of AF10 (AF10PZP, aa 19–208), wild type, O54826 D43K (protein)
chain: KEMIGGCCVCSDERGWAENPLVYCKGHGCSVAVHQACYGIVQVPTGPWFCRKCESQERAARVRCELCPHKDGALKRTDNGGWAHVVCALYIPEVQFANVSTMEPIVLQSVPHDRYNKTCYICDEQGRESKAATGACMTCNKHGCRQAFHVTCAQFAGLLCEEEGNGADNVQYCGYCKYHFSKLKKSKRGS
Question: Which Kd [3] does the source give for B1 here?
Answer: 9 µM

— PMC8257627
